We go through nine molecules from paper PMC6099280, “Characterisation of a putative glutamate 5‐kinase from Leishmania donovani” (The Febs Journal, 2018).

The target in series [1] is T1, LdG5K (Leishmania donovani, UniProt A0A0R6Y3I5).
T1 construct: gene G5K; tetramer about 105 kDa
T1 sequence (A0A0R6Y3I5 1-263): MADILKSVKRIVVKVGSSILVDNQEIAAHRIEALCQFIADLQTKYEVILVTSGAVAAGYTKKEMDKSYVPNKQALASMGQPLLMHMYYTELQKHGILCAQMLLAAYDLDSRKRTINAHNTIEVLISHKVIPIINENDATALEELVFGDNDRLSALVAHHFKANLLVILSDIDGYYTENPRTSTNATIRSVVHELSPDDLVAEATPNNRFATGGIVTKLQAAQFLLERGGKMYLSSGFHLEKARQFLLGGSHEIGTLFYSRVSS
Kind of series: PK/LDH-coupled NADH oxidation assay, single point. The class given is biochemical. The settings on record: 1 mM compound; 100 mM Na glutamate, 5 mM ATP, 5 mM MgCl2, pH 7.4, 25 °C. The source says: PK/LDH-coupled NADH oxidation assay, single point on LdG5K

The target in series [2] is T1, LdG5K. Kind of series: PK/LDH-coupled NADH oxidation assay. The class given is biochemical. An excerpt: (§1) PK/LDH-coupled NADH oxidation assay on LdG5K
Substrate in series [3]: Nc1ncnc2c1ncn2[C@@H]1O[C@H](COP(=O)(O)OP(=O)(O)OP(=O)(O)O)[C@@H](O)[C@H]1O
Kind of series: PK/LDH-coupled NADH oxidation assay. The series is classed as biochemical, Leishmania donovani. The settings on record: 150 mM Na glutamate, 5 mM MgCl2, pH 7.4, 25 °C.
Excerpt: as §1

Substrate in series [4]: N[C@@H](CCC(=O)O)C(=O)O
Kind of series: PK/LDH-coupled NADH oxidation assay. The class given is biochemical, Leishmania donovani. Conditions: 5 mM ATP, 5 mM MgCl2, pH 7.4, 25 °C, no proline.
Excerpt: as §1

Substrate in series [5]: N[C@@H](CCC(=O)O)C(=O)O
The experiment in a line: PK/LDH-coupled NADH oxidation assay, Hill fit. The settings on record: no proline, Hill slope 0.94 ± 0.09, pH 7.4, 25 °C. The class given is biochemical, Leishmania donovani.

Series [6] deals with the molecule itself. The experiment in a line: SEC; Superdex 200 H/R 10/30, 50 mM Tris-HCl pH 7.2, 0.15 M NaCl, 0.5 mL/min, room temperature; mass estimated against protein standards; no proline.

For the molecule `O=C(O)[C@H]1CN[C@H](C(=O)O)C1` [L‐trans‐pyrrolidine‐2,4‐dicarboxylic acid], the “LdG5K activity (%) with 1 mM” value on LdG5K [1] is 84%.
The same measure, in the same setting: for `O=C(O)[C@@H]1C[C@H](O)CN1` [Cis‐4‐hydroxy‐L‐proline] the value was 87%.
`O=C(O)[C@@H]1CCCN1` [L‐proline] displayed an IC50 at LdG5K [2] of 390 ± 80 µM.
Consider `O=C(O)[C@@H]1C[C@@H](O)CN1` [Trans‐4‐hydroxy‐L‐proline], for which the “LdG5K activity (%) with 1 mM” value at LdG5K [1] was determined as 89%.
For `O=C(O)[C@@H]1CSCN1` [L‐4‐thioproline], the IC50 on LdG5K [2] stood at 1800 ± 200 µM.
For `C[C@@]1(C(=O)O)CCCN1` [α‐methyl‐L‐proline], on LdG5K [1], the “LdG5K activity (%) with 1 mM” value is reported as 82%.
Molecule `O=C(O)C1C=CCN1` (racemic) [3,4‐dehydro‐D,L‐proline] came in with an IC50 at LdG5K [2] of 490 ± 20 µM.
For `O=C(O)[C@@H]1CCN1` [L‐azetidine‐2‐carboxylic acid], the IC50 at LdG5K [2] was 730 ± 70 µM.

B1: Leishmania donovani glutamate 5-kinase (enzyme, UniProt A0A0R6Y3I5 1-263, looked up)
chain: MADILKSVKRIVVKVGSSILVDNQEIAAHRIEALCQFIADLQTKYEVILVTSGAVAAGYTKKEMDKSYVPNKQALASMGQPLLMHMYYTELQKHGILCAQMLLAAYDLDSRKRTINAHNTIEVLISHKVIPIINENDATALEELVFGDNDRLSALVAHHFKANLLVILSDIDGYYTENPRTSTNATIRSVVHELSPDDLVAEATPNNRFATGGIVTKLQAAQFLLERGGKMYLSSGFHLEKARQFLLGGSHEIGTLFYSRVSS
notes: theoretical Mr 29.033 kDa; Cloned through BamHI/EcoRI into a modified pGEX-6P-1 with an in-frame N-terminal His-GST tag; also called LdG5K; G5K; source: E. coli C41(DE3) pLysS, purified (glutathione resin, on-column cleavage by PreScission protease); not shown: His, N-terminal, cleaved; GST, N-terminal, cleaved
As for B1, in series [3], the Michaelis constant (Km) was determined as 0.6 ± 0.07 mM, the turnover number (kcat) came to 11.7 ± 0.3 s⁻¹ and the kcat/Km stood at 19500 M⁻¹ s⁻¹. Further, in series [4], the Michaelis constant (Km) came out at 10 ± 0.7 mM, the turnover number (kcat) came out at 12.8 ± 0.3 s⁻¹ and the kcat/Km turned out to be 1280 M⁻¹ s⁻¹. Further, in series [5], the K0.5 is on record as 19.0 ± 2.9 mM and the kcat was found to be 13.5 ± 0.6 s⁻¹. For the same molecule, the “stoichiometry N” value in series [6] was 4.

One may read the IC50 as the point on the concentration scale where inhibition reaches its midpoint. A higher IC50 goes with weaker potency in that assay. A word on the Km: it is the concentration of substrate that gives half-maximal velocity. As usually defined, the kcat is the number of substrate molecules converted per active site and unit of time at saturation. The term kcat/Km denotes the turnover number divided by the Michaelis constant. As a reminder, the stoichiometry N is the number of molecules, sites or subunits per partner or assembly.
